Test results taken from patent US20110300138A1 (published 2011).

Columns and labels:
[1] = target: thyroid stimulating hormone receptor (TSHR), full length, coated on tubes (human) (UniProt P16473); assay: inhibition of 125I-TSH binding, TSHR coated tubes; antibody 100 µg/mL in assay buffer
[2] = target: TSHR260-alkaline phosphatase (TSHR260-AP) (human) (UniProt P05187); assay: TSHR260-AP bridge ELISA, full length TSHR on wells; 100 µg/mL, diluted in assay buffer
[3] = target: human thyroid stimulating hormone receptor (TSHR), full length (human) (UniProt P16473); assay: 125I-K1-70 Fab (competitor) binding to TSHR coated tubes; test sample 1 µg/mL in assay buffer

Inhibition of binding (%) [1]: 82.9%
Mean absorbance at 405 nm (absorbance at 405 nm) [2]: 0.669
Inhibition of binding (%) [3]: 41.5%
B1: 5C9 IgG (antibody, from another filing, V domains shown)
VH: EVQLVESGGGLIQPGGSLRLSCAASGFTVSSNYMSWVRQAPGKGLEWVSVTYSGGSTSYADSVKGRFTISRDNSKNTLYLQMNSLRAEDTAVYYCARGGRYCSSISCYARSGCDYWGQGTLVTVSS
VL: AIQMTQSPSSLSASVGDRVTITCRASQSISNYLNWYQQKPGKAPKLLIYAASSLQSGVPSRFSGSGSGTDFTLTISSLQPEDFATYYCQQSYSSPSTTFGQGTKLEIK
